Assay results reported in the nanobody polyreactivity screen of Harvey et al. (2022).

assay: yeast display, Sf9 membrane polyspecificity reagent, FACS + sequencing; frameworks hold sequencing errors
Procedure, shortened: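 Genes from sorted yeast were amplified by colony PCR, read by MiSeq 2 × 250 sequencing and filtered on CDR length. These cells carried a synthetic nanobody library in Saccharomyces cerevisiae BJ5465 and were sorted by FACS into low and high (top ~1%) gates on anti-HA and streptavidin fluorescence. Polyreactivity is labelled according to the gate of origin.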

Row | Sequence | polyreactivity (PSR sort gate)
1 | QVQLVESGGGLVQAGGSLRLSCAASGFTFHWNAMGWYRPAPGKERELVAVITSGGSTNYADSVKGRFTISRDNAKNTVYLQMNSLKPEDTAVYYCAKEDGYSQLKTTFDEPGYGSWGQGTQVTVSS | low polyreactivity
2 | QVQLVESGGGLVQAGGSLRLSCAASGFTFHYYAMGWYRQAPGKERELVAAISRGGGNTYYADSVKGRFTISRDNAKNTVYLQMNSLKPEDTAVYYCAADSKYRFSHGLDYWGQGTQVTVSS | high polyreactivity
3 | QVQLVESGGGLVQAGGSLRLSCAASGFTFIPNAMGWYRQAPGKERELVADITWSGGTTYYADSVKGRFTISRDNAKNTVYFQMNSLKPEDTAVYYCNADYLFYAFDYWGQGTQVTVSS | low polyreactivity
4 | QVQLVESGGGLVQAGGSLRLSCAASGFTFISNAMGWYRQAPGKERELVAAISSAGGRTYYADSVKGRFTISRATAKITVYLQMNTLKPEDTEVYYSNADRSLLYSRKIEYDSWGQGTQVTVSS | low polyreactivity
5 | QVQLVESGGGLVQAGGSLRLSCAASGFTFIYYAMGWYRQAPGKERELVAAIRWSGGSTYYADSVKGRFTISRDNAKNTVYLQMNSLKPEDTAVYYCAASWYWFAQKRVYYWGQGTQVTVSS | high polyreactivity
6 | QVQLVESGGGLVQAGGSLRLSCAASGFTFIYYAMGWYRQAPGKERELVAAITSGGNTYYADSVKGRFTISRDNAKNTVYFQMNSLKPEDTAVYYCNKVPHREWVGGYDYWGQGTQVTVSS | low polyreactivity
7 | QVQLVESGGGLVQAGGSLRLSCAASGFTFKGNAMGWKRPAPGKERELVAGISRSGRTYYADSVKGRFTISRDNAKNTVYLQMNSLKPEDTAVYYCNVVYTYWRYYRWREYDYWGQGTQVTVSS | high polyreactivity
8 | QVQLVESGGGLVQAGGSLRLSCAASGFTFKKNAMGWYRPAPGKERELVAAISRSGGITYYADSVKGRFTISRDNAKNTVYLQMNSLKPEDTAVSYCATQTYRTPAYPAYGYWGQGTQVTVSS | high polyreactivity
9 | QVQLVESGGGLVQAGGSLRLSCAASGFTFKLYAMGWYRQAPGKERELVAAISSSGGRTYYADSVKGRFTISRDNAKYNVYLQMNSLKPEDTAVYYCNAVRTVNDYHYDYWGQGTQVTVSS | high polyreactivity
10 | QVQLVESGGGLVQAGGSLRLSCAASGFTFKPYTMGWYRQAPGKERELVAAISRSGGSTYYADSVKGRFTISRDNAKNTVYLQMNSLKPEDTAVYYCAKRGNSWYLGGSWGQGTQVTVSS | high polyreactivity
11 | QVQLVESGGGLVQAGGSLRLSCAASGFTFKRNGMGWYRQAPGKERELVAAISSSGGNTYYADSVKGRFTISRDNAKNTVYLQMNSLKPEDTAVYDCAAASRYFDRDYWGQGTQVTVSS | high polyreactivity
12 | QVQLVESGGGLVQAGGSLRLSCAASGFTFKRYAMGWYRQAPGKERELVAAISYGGSRTYYADSVKGRFTISRDNAKNTVYLQMNSLKPEDTAVYYCNFRRRTWHYITSMDYWGQGTQVTVSS | high polyreactivity
13 | QVQLVESGGGLVQAGGSLRLSCAASGFTFKRYAMGWYRQARGKERELVAAISWSGSSTYYADSVKGRFTISRDNAKNTVYLQMNSLKPEDTAVYYCAARSFRPAYDYWGQGTQVTVSS | high polyreactivity
14 | QVQLVESGGGLVQAGGSLRLSCAASGFTFKSYAMGWYRPAPGKERELVAGITRTGVSTYYADSVKGRFTISRDNAKNTVYLLMNSLKPEDTAVYYCAAGIRHIYQSYAFYKFDYWGQGTQVTVSS | high polyreactivity
15 | QVQLVESGGGLVQAGGSLRLSCAASGFTFKVYAMGWYRQAPGKERELVAAISKSGGSTYYADSVKGRFTISRDNAMNTVYLQMNSLKPEDTAVDYCATGGYAYVYPYDYWGQGTQVTVSS | low polyreactivity
16 | QVQLVESGGGLVQAGGSLRLSCAASGFTFKWYTMGWYRQAPGKERELVAGISRRGGSTYYADSVKGRFTISRDNAKNTFYLQMNSLKPEDTAVYYCAADSKLTKFYYWGQGTQVTVSS | high polyreactivity
17 | QVQLVESGGGLVQAGGSLRLSCAASGFTFKWYTMGWYRQAPGKERELVAGISRRGGSTYYADSVKGRFTISRDNAKNTVYLQMNSLKPEDTAVYYCAAEFPTVYFPWSEMDYWGQGTQVTVSS | high polyreactivity
18 | QVQLVESGGGLVQAGGSLRLSCAASGFTFKYNAMGWYRQAPGKERELVASISSGSTNYADSVKGRFTISRDNAKNTVYLQMNSLKPEDTAVYYCSASVSRGKRFRYGYVFKMDYWGQGTQVTVSS | low polyreactivity
19 | QVQLVESGGGLVQAGGSLRLSCAASGFTFKYYALGWYRQAPGKERELVAAIRGSGAGTYYADSVKGRFTISRDNSKNTVYLQMNSLKPEDTAVYYCNNRWTYKWDDYWGQGTQVTVSS | high polyreactivity
20 | QVQLVESGGGLVQAGGSLRLSCAASGFTFKYYAMGWYRQAPGKERELVAAITWSGGSTYYADSVKGRFTISRDNAKNTVYLQMNSLKPEDTAVYYCNAKVYQISRYGYWGQGTQVTVSS | high polyreactivity

Row | Sequence | polyreactivity (PSR sort gate)
21 | QVQLVESGGGLVQAGGSLRLSCAASGFTFLAYSMGWYRQAPGKERELVAAIRWSGRRTYYADSVKGRFTISRDNAKNTVYLQMNSLKPEDTAVYYCAADTRRVREYNYWGQGTQVTVSS | low polyreactivity
22 | QVQLVESGGGLVQAGGSLRLSCAASGFTFLNYAMGWYRQAPGKERELVAAITRSGGSTYYADSVKGRFTISRDTAKNTVYLQMNSLKPEDTAVYYCAIGYYSPNYYYWGQGTQVTVSS | high polyreactivity
23 | QVQLVESGGGLVQAGGSLRLSCAASGFTFLRYAMGWYRPAPGKERELVAVITYGGGSTYYADSVKGRFTISRDNAKNTVYLQMNSLKPEDTAVYYCALYPRRAGGDYWGQGTQVTVSS | high polyreactivity
24 | QVQLVESGGGLVQAGGSLRLSCAASGFTFLWYGMGWYRQAPGKERELVAAISSSGGSTYYADSVKGRFTISRDNAKNTVFLQMNSLKPEDTAVYYCAVAVSNQYVRYGYWGQGTQVTVSS | low polyreactivity
25 | QVQLVESGGGLVQAGGSLRLSCAASGFTFLYYDMGWYRQAPGKERELVAAITSSGTSTYYADSVKGRFTISRDNAKNTVYLQMNSLKPEDTAVYYCAVLYTYAGRHRYGYWGQGTQVTVSS | high polyreactivity
26 | QVQLVESGGGLVQAGGSLRLSCAASGFTFNANAMGWYRQAPGKERELVAVITRSGGRTYYADSVKGRFTISRDNAKNTVYLQMNSLKPEDTEVYYCAKECPSRVYQGTDSASDYWGQGTQVTVSS | high polyreactivity
27 | QVQLVESGGGLVQAGGSLRLSCAASGFTFNDNDMGWYRQAPGKEWELVAAITYGGSTYYADSVKGRFTISRENAKNTVYLQMNSLKPEDTAVYYCNVEFFFWPYEYGYWGQGTQVNVSS | low polyreactivity
28 | QVQLVESGGGLVQAGGSLRLSCAASGFTFNDYAMGWYRQAPGKERELVAAIDWSGGRTYYADSVKGRFTISRDNAKNTVYLQMNSLKPEDTAVYYCAAVLYSRMYWYRLDYWGQGTQVTVSS | low polyreactivity
29 | QVQLVESGGGLVQAGGSLRLSCAASGFTFNFYVMGWYRQAPGKERELVAAITSNGGSTYYADSVKGRFTISRDNAKNTVYLQMNSLKPEDTAVYYCAADQYPTWSYLPFDYWGQGTQVTVSS | high polyreactivity
30 | QVQLVESGGGLVQAGGSLRLSCAASGFTFNGYAMGWYRQAPGKERELVAGITRRGGITYYADSVKGRFTISRDNAKNTVYLQMNSLNPEDTAVYYCNAYPRYIIPSIVNGYNYWGQGTQVTVSS | high polyreactivity
31 | QVQLVESGGGLVQAGGSLRLSCAASGFTFNGYARGWYRQAPGKDRELVATMTNGGSTYYADSVKGRFTISRDNAKNTVYLQMNSLKPEDTAVYYCAAESEQATPGYLAPLFDYWGQGTQVTVSS | low polyreactivity
32 | QVQLVESGGGLVQAGGSLRLSCAASGFTFNRNAMGWYRQAPGKERELVAAISWSGGSTYYADSVKGRFTLSRDNAKNTVYLQMNSLKPEETAVYYCAKGYRRVYGPFYYWGQGTQVTVSS | low polyreactivity
33 | QVQLVESGGGLVQAGGSLRLSCAASGFTFNRYAMGWYRQAPGKERELVAAISWSGTSTYYADSVKGRFTISRDNAKNTVYLQMNSLKPEDTAVYYCATRQTHSYDYWGQGTQVTVSS | high polyreactivity
34 | QVQLVESGGGLVQAGGSLRLSCAASGFTFNRYAMGWYRQAPGKERELVASITTGGRTNYADSVKGRFTISRDNAKNTVYLQMNSLKPEDTAVYYCAADYGYFYRYYYWGQGTQVTVSS | high polyreactivity
35 | QVQLVESGGGLVQAGGSLRLSCAASGFTFNSYAMGWYRQAPGKERELLAAISRIGGITYYADSVKGRFTISRDNAKNTVYLQMNSLKPEDTAVYYCNTASVYVYTGRYDYWGQGTQVTVSS | high polyreactivity
36 | QVQLVESGGGLVQAGGSLRLSCAASGFTFNSYAMGWYRQAPGKERELVAAITSSGGLTYYADSVKGRFTISRDNAKNTVYLQKNSLKPEDTAVYYCAARPGGKVATIYDYWGQGTQVTVSS | low polyreactivity
37 | QVQLVESGGGLVQAGGSLRLSCAASGFTFNTYAMGWYRQAPGKERELVAAITTSGGSTYYADSVKGRFTISRDNAKNTVYLQMNSLKPEDTAVYSCAAKSGRGVVRGRDDYWGQGTQVTVSS | high polyreactivity
38 | QVQLVESGGGLVQAGGSLRLSCAASGFTFPAYTMGWYRQAPGKEREWVAAITSSGGNTYYADSVKGRFTISRDNAKNTVYLQMNSLKPEDTAVYYCATVSVRWPSNDHVRYDYWGQGTQVTVSS | low polyreactivity
39 | QVQLVESGGGLVQAGGSLRLSCAASGFTFPENAMGWYRQAPGKERELVAAISYRGASTFYADSVKGRFTISRDNAKNTVYLQLISLKPEDTAVYYCATDPRIRYQGNPYDYWGQGTQVTVSS | high polyreactivity
40 | QVQLVESGGGLVQAGGSLRLSCAASGFTFPEYDMGWYRQAPGKERELVAAINYSDGRTFYADSVKGRFTISRDNAKNTVYLQMNSLKPEDTAVYYCATDLSYDVWFFGPDYDYWGQGTQVTVSS | low polyreactivity
